# Measurements published in article PMC4145799.
# Columns and labels:
# [1] = target: inducible lysine decarboxylase LdcI (Escherichia coli) (UniProt P0A9H3); experiment: cryo-EM structure; LdcI-LARA complex, 7.5 Å; 7.3 µM LdcI with 73 µM LARA (1:10), 15 min at room temperature, 50 mM Mes pH 6.5, 100 mM NaCl, 0.2 mM PLP, 1 mM DTT, 0.01% glutaraldehyde; D5 symmetry imposed
# LdcI (Escherichia coli) = LdcI (Escherichia coli) (UniProt P0A9H3); settings: cited from earlier work
# LdcI (Escherichia coli), sequence (P0A9H3 whole entry, the tested form may be a part): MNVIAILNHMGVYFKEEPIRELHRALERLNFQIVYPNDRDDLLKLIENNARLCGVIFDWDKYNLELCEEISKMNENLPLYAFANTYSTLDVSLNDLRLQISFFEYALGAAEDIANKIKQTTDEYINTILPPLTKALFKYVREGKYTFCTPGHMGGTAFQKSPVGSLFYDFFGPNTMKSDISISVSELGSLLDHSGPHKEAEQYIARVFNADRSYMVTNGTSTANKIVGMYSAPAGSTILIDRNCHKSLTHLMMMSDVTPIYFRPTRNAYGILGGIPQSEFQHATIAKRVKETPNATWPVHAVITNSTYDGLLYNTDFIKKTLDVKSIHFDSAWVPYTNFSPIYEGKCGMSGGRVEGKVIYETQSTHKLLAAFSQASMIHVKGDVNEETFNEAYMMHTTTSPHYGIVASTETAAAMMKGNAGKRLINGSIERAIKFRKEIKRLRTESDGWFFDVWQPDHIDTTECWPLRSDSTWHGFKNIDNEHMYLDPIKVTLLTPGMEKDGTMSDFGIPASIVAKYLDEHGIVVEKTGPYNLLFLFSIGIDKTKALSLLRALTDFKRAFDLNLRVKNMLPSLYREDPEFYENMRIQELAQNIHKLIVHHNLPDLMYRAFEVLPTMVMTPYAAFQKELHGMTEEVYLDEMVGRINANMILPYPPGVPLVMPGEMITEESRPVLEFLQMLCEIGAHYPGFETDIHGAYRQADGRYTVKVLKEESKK
# RavA, sequence (P31473 whole entry): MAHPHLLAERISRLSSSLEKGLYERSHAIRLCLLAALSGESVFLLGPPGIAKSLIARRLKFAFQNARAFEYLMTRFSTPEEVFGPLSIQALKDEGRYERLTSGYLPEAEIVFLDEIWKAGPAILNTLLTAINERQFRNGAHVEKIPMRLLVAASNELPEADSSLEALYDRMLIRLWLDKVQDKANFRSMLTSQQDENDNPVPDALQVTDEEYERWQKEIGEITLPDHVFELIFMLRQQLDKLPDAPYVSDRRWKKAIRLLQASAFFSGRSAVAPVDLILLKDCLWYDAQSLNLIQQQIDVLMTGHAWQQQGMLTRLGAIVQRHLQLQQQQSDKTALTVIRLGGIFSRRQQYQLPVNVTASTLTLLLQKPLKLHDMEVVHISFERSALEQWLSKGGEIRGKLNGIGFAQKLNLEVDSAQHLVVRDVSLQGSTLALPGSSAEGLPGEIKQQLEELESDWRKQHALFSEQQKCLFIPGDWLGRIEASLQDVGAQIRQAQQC
# inducible lysine decarboxylase LdcI (Escherichia coli), sequence (P0A9H3 whole entry): as the sequence (P0A9H3 whole entry, the tested form may be a part) above
stoichiometry N (LARA domain per LdcI protomer) [1],Substance,Kd (LdcI (Escherichia coli))
1,LARA domain of RavA (LdcI associating domain of RavA) (from UniProt P31473 1-498) (domain or fragment),
,RavA (from UniProt P31473),0.02 µM
